The source of these data is paper PMC12747932, “Crystal structures of Kif2A complexed with WDR5 reveal the structural plasticity of WIN-S7 sites” (Acta Biochimica et Biophysica Sinica, 2025).

Common to all, as to assay: ITC; peptide (approximately 1 mM) titrated into protein (0.05 mM), 20°C, Buffer E (20 mM Tris-HCl, 200 mM NaCl, pH 7.5), single binding site model, duplicate
What all share (details): both partners purified
For orientation: In ITC the heat of successive injections is recorded.

The target of assay [1] is human WDR5 seven tandem WD-40 domain (residues 24–334) (human, UniProt P61964 24-334).
Assay [2] has the same target. This is another data set of the same source.
For assay [3], the target named is WDR5 Y191F variant (residues 24–334) (human, UniProt P61964 24-334, Y191F).

B1: Kif2A 114–120 peptide (peptide)
peptide: GSARARP
notes: also called truncated Kif2A; source: synthetic peptide (GenScript)
On to B1, for which, in assay [1], the affinity, expressed as Kd, was 6710 nM; the dH is -9.2 ± 0.11 kcal/mol; the stoichiometry N – broadly, the number of molecules, sites or subunits per partner or assembly – was found to be 1.19.
As to GSARARPAQ [Kif2A S121A peptide], in assay [2], binding was put at a Kd of 2160 nM, the dH is -13 ± 0.12 kcal/mol and the “stoichiometry N” value turned out to be 0.97.

B2: Kif2A 114–122 peptide (peptide)
peptide: GSARARPSQ
notes: also called wild-type Kif2A; source: synthetic peptide (GenScript)
Take B2: in assay [1], the equilibrium dissociation constant (Kd) – broadly, the concentration at which binding is half-saturated – is 780 nM; the dH was -15.7 ± 0.13 kcal/mol; the “stoichiometry N” value turned out to be 0.91. Moreover, in assay [3], binding was put at a Kd of 960 nM, the dH was -9 ± 0.08 kcal/mol and the “stoichiometry N” value is 1.27.

B3: Kif2A 114–122 (S121G) peptide (peptide)
peptide: GSARARPGQ
notes: also called Kif2A^S121G; source: synthetic peptide (GenScript)
In the case of B3, in assay [1], the Kd turned out to be 3720 nM, the dH was -10.6 ± 0.14 kcal/mol and the “stoichiometry N” value amounted to 0.94.
